ELISA signal (A450) data for two substances are collected here from patent US20200173986A1.

In test [1] the target is endogenous SNAP25 in total cell lysate. The test is described as follows: sandwich ELISA with total cell lysate, negative control.
The target is the same in test [2]. Described as above. The source holds these as a separate data set.
The target is the same in test [3]. Described as above. This is another data set of the same source.
Test [4] has the same target. The test is described as follows: sandwich ELISA with total cell lysate, positive control.
Test [5] has the same target. The test is described as above. This is another data set of the same source.
Test [6] shares this target. The test is described as above. This is another data set of the same source.

Chain of endogenous SNAP25 in total cell lysate (P60879 whole entry): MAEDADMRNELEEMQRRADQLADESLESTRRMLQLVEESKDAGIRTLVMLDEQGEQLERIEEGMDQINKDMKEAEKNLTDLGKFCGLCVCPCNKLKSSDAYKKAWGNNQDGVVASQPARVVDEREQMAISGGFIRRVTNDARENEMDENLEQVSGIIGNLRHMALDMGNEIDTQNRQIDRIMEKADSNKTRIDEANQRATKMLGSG

In the case of NC, the ELISA signal (A450) in test [1] is 0.213; in test [2], 0.125; in test [3] it was 0.27.

PC: the ELISA signal (A450) in test [4] amounted to 2.5; in test [5] it was 3.49; in test [6], 2.77.
